Measured values taken from PMC3246216 (2012).

Assays:
Experiment in all cases: ITC
Gcn4 101-134 [1] = target: T1, Gcn4 101-134 (Saccharomyces cerevisiae, UniProt P03069)
T1 chain: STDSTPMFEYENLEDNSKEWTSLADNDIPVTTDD

Gcn4 101-134 [2] = target: T2, Gcn4 101-134 (Saccharomyces cerevisiae, UniProt P03069)
T2 chain: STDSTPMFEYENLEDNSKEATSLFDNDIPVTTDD

Gcn4 101-134 [3] = target: T3, Gcn4 101-134 (Saccharomyces cerevisiae, UniProt P03069)
T3 chain: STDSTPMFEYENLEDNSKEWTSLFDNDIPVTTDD

| Binder | Kd (Gcn4 101-134 [1]) [µM] | Kd (Gcn4 101-134 [2]) [µM] | Kd (Gcn4 101-134 [3]) [µM] |
| --- | --- | --- | --- |
| Gal11/Med15 158-238 (protein) QRRQLTPQQQQLVNQMKVAPIPKQLLQRIPNIPPNINTWQQVTALAQQKLLTPQDMEAAKEVYKIHQQLLFKARLQQQQAQ | 65 | 56 | 10.1 |
| Gal11/Med15 158-238 (protein) QRRQLTPQQQQLVNQMKVAPIPKQLLQRIPNIPPNINTWQQVTALAQQKLLTPQDAEAAKEVYKIHQQLLFKARLQQQQAQ |  |  | 76 |
